B1: mAb23 (analog of cemiplimab) (antibody, V domains shown)
VH: EVQLLESGGVLVQPGGSLRLSCAASGFTFSNFGMTWVRQAPGKGLEWVSGISGGGRDTYFADSVKGRFTISRDNSKNTLYLQMNSLKGEDTAVYYCVKWGNIYFDYWGQGTLVTVSS
VL: DIQMTQSPSSLSASVGDSITITCRASLSINTFLNWYQQKPGKAPNLLIYAASSLHGGVPSRFSGSGSGTDFTLTIRTLQPEDFATYYCQQSSNTPFTFGPGTVVDFR
notes: VH; IgG4 heavy-chain constant region with stabilizing 226CPPC hinge; VL; IgG4 analog; source: HEK293 suspension cells, cotransfected, purified (Protein A)
B2: mAb03 (analog of tislelizumab) (antibody, V domains shown)
VH: QVQLQESGPGLVKPSETLSLTCTVSGFSLTSYGVHWIRQPPGKGLEWIGVIYADGSTNYNPSLKSRVTISKDTSKNQVSLKLSSVTAADTAVYYCARAYGNYWYIDVWGQGTTVTVSS
VL: DIVMTQSPDSLAVSLGERATINCKSSESVSNDVAWYQQKPGQPPKLLINYAFHRFTGVPDRFSGSGYGTDFTLTISSLQAEDVAVYYCHQAYSSPYTFGQGTKLEIK
notes: as for B1
B3: mAb16 (analog of dostarlimab) (antibody, V domains shown)
VH: EVQLLESGGGLVQPGGSLRLSCAASGFTFSSYDMSWVRQAPGKGLEWVSTISGGGSYTYYQDSVKGRFTISRDNSKNTLYLQMNSLRAEDTAVYYCASPYYAMDYWGQGTTVTVSS
VL: DIQLTQSPSFLSAYVGDRVTITCKASQDVGTAVAWYQQKPGKAPKLLIYWASTLHTGVPSRFSGSGSGTEFTLTISSLQPEDFATYYCQHYSSYPWTFGQGTKLEIK
notes: as for B1
B4: mAb23 (analog of cemiplimab) (antibody, V domains shown)
VH: B1 VH
VL: B1 VL
notes: VH; IgG4 heavy-chain constant region with a stabilizing 226CPPC hinge modification; IgG4; isotype-matched analog made from published variable regions, not the clinical molecule; source: HEK293 suspension cells, cotransfected, purified (Protein A)
B5: mAb03 (analog of tislelizumab) (antibody, V domains shown)
VH: B2 VH
VL: B2 VL
notes: as for B4
B6: mAb16 (analog of dostarlimab) (antibody, V domains shown)
VH: B3 VH
VL: B3 VL
notes: as for B4

Molecular target: T1, biotinylated His-tagged PD-1 (Homo sapiens, UniProt Q15116, biotin)
T1 construct: PD-1, His-tagged, biotinylated, used in the MSD experiments; probably the R&D Systems Leu25-Thr168 protein after biotinylation
Test: MSD solution equilibrium titration; 100 pM biotinylated His-tagged PD-1 titrated with mAb (top 100, 50 or 10 nM binding sites), 18 h at room temperature; free antigen captured on mAb-coated MSD plates; relative KD
Conditions: both partners purified

T1 sequence (Q15116 whole entry, looked up, tested part not stated): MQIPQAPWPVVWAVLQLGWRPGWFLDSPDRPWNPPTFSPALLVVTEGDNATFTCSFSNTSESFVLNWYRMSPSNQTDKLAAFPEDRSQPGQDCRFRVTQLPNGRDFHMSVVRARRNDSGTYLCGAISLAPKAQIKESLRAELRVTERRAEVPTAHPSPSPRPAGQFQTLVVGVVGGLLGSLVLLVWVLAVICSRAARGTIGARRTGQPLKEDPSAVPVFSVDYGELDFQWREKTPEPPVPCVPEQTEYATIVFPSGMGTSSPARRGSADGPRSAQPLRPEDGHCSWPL

In order of rising Kd:
1. B2  0.024 nM
2. B1  0.13 nM
3. B3  0.18 nM

Molecular target: T2, Recombinant purified human PD-1 protein, residues Leu25-Thr168, with a C-terminal 6-His tag (human, UniProt Q15116)
T2 construct: programmed cell death protein 1 (PD-1), human, residues Leu25-Thr168; monomer; the results call it wild-type or full length PD-1 against the P35-Q167 fragment; also called PD-1-His; PD-1 His-tagged monomer; source: bought: R&D Systems; not shown: His6, C-terminal, kept
Test: SPR; Carterra LSA, CMD-P (flat) chip; mAbs captured on goat anti-human IgG Fc in a 384-spot array; PD-1-His analyte 0.5-1000 nM, 5 min association, 20 min dissociation; HBS-ET + 0.5 mg/ml BSA; 1:1 Langmuir fit; mean of spots; apparent
Conditions: both partners purified

T2 sequence (Q15116 25-168): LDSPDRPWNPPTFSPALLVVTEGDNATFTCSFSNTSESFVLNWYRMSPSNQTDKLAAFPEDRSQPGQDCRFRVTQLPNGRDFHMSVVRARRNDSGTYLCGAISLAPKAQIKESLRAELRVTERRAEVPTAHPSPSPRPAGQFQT

Going from B1 to B2, the Kd falls from 1.5 nM to under 0.099 nM. The second binds more tightly here.

With B3 the Kd was 1.6 nM.

First: B1
Second: B2
The koff of the first is higher: 0.00028 s⁻¹ for the first, under 4.3e-05 s⁻¹ for the second.

With B3 the koff was 0.00039 s⁻¹.

In order of falling kon:
1. B2  430000 M⁻¹ s⁻¹
2. B3  240000 M⁻¹ s⁻¹
3. B1  190000 M⁻¹ s⁻¹

Molecular target: T3, Recombinant purified human PD-1 protein, residues Leu25-Thr168, with a C-terminal 6-His tag (Homo sapiens, UniProt Q15116)
T3 construct: human PD-1 (programmed cell death protein 1), residues Leu25-Thr168; monomer; used as analyte in SPR and as titrant in KinExA; also called PD-1-His; PD-1-His monomer; source: bought: R&D Systems (catalog# 8986-PD, lot# DDJM0417041); not shown: His6, C-terminal, kept
Test: KinExA; 'Kinetics, Direct' method, solution phase: mAb mixed with PD-1, free mAb probed repeatedly pre-equilibrium on PD-1-coupled PMMA beads, Alexa647 goat anti-human IgG detection; ka fitted (best fit, 95% CI), kd calculated from ka and KD
Conditions: both partners purified

T3 sequence (Q15116 25-168): as above

In order of rising koff:
1. B5  6.82e-05 s⁻¹
2. B4  0.00011 s⁻¹
3. B6  0.00013 s⁻¹

In order of rising kon:
1. B4  502000 M⁻¹ s⁻¹
2. B6  639000 M⁻¹ s⁻¹
3. B5  1.8e+06 M⁻¹ s⁻¹

Molecular target: T2, Recombinant purified human PD-1 …
Test: KinExA equilibrium; fixed mAb orientation: PD-1-His monomer titrated (0.1 pM-1.2 uM) into fixed mAb, equilibrated up to 64 h; free mAb captured on beads coated with Fc-fused PD-1; about 23 C; PBS pH 7.4 + 0.05% azide + 0.01% BSA; N-curve analysis; apparent
Conditions: both partners purified

In order of rising Kd:
1. B2  0.038 nM
2. B3  0.2 nM
3. B1  0.22 nM

Molecular target: T2, Recombinant purified human PD-1 …
Test: SPR; Biacore 8K, 3D-hydrogel chips (average of CM5 and CMD-200M); mAbs captured on goat anti-human IgG Fc; PD-1 His-tagged monomer analyte 0.4-100 nM; 25 C; HBS-EP+ pH 7.4; 1:1 Langmuir fit with mass transport; apparent
Conditions: both partners purified

In order of rising Kd:
1. B2  0.26 nM
2. B3  1.7 nM
3. B1  1.9 nM

Molecular target: T3, Recombinant purified human PD-1 …
Test: SPR; Carterra LSA, CMD-P (flat) chip; mAb captured by amine-coupled goat anti-human IgG Fc, PD-1-His as analyte 0.5-1000 nM, 5 min association, 20 min dissociation; run buffer with 0.5 mg/ml BSA; global 1:1 Langmuir fit; mean (stdev) of 8-12 spots per mAb; KD deduced from kd/ka; apparent
Conditions: both partners purified

Going from B4 to B5, the Kd falls from 1.52 nM to under 0.1 nM. The second binds more tightly here.

For B6, the Kd was 1.67 nM.

Going from B4 to B5, the koff falls from 0.000297 s⁻¹ to under 4.27e-05 s⁻¹.

In the case of B6, the koff is reported as 0.000421 s⁻¹.

In order of falling kon:
1. B5  432000 M⁻¹ s⁻¹
2. B6  252000 M⁻¹ s⁻¹
3. B4  195000 M⁻¹ s⁻¹

Molecular target: T2, Recombinant purified human PD-1 …
Test: SPR; Biacore 8K, flat chips (average of C1 and CMD-P); mAbs captured on goat anti-human IgG Fc; PD-1 His-tagged monomer analyte 0.4-100 nM; 25 C; HBS-EP+ pH 7.4; 1:1 Langmuir fit with mass transport; apparent
Conditions: both partners purified

In order of falling Kd:
1. B3  0.87 nM
2. B1  0.82 nM
3. B2  0.13 nM
